In patent US20230287348A1:

Tests used:
[1] = molecular target: CD19 antigen on ALL cells (REH cell line, primary ALL blasts) (human) (UniProt P15391); assay: cell-based or functional assay
[2] = molecular target: CD123 antigen on AML cells (THP-1 cell line, primary AML blasts) (human) (UniProt P26951); assay: cell-based or functional assay
Chain of UniProt P26951 (P26951 19-378): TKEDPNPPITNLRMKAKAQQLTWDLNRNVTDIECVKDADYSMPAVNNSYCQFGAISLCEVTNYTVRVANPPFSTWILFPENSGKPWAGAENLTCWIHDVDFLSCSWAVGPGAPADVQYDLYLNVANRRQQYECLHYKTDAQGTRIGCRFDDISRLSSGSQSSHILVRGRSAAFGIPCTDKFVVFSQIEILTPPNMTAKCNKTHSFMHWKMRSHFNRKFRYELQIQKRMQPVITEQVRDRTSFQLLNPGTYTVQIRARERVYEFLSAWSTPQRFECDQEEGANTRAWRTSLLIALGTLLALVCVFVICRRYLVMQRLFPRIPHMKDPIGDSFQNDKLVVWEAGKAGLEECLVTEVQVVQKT

Chain of UniProt P15391 (P15391 20-556): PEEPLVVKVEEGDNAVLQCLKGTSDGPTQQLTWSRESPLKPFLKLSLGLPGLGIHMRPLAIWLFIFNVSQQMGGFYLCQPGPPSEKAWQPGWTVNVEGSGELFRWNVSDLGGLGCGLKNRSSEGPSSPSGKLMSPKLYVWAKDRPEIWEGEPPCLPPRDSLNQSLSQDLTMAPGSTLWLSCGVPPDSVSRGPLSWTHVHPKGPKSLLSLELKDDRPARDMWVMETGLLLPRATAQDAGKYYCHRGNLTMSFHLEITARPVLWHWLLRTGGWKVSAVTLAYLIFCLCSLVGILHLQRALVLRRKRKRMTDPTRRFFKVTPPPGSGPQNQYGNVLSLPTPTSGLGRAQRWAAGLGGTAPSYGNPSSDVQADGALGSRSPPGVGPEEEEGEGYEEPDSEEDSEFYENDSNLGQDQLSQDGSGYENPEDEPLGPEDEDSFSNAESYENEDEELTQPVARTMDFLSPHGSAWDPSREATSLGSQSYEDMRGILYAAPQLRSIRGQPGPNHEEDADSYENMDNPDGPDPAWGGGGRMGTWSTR

Substance | lysis of ALL primary blasts by CD19·CAR+ CIK cell populations (cytotoxic assay) [1] [%] | lysis of REH ALL cell line by CD19·CAR+ CIK cell populations (cytotoxic assay) [1] [%] | lysis of AML primary blasts by CD123·CAR+ CIK cell populations (cytotoxic assay) [2] [%] | lysis of THP-1 AML cell line by CD123·CAR+ CIK cell populations (cytotoxic assay) [2] [%]
CD19·CAR (anti-CD19 chimeric antigen receptor: VL and VH of clone FMC63 in frame with CH2CH3-CD28-OX40-ζ), expressed on CIK cells (from UniProt P10747 153-220; P43489 242-277; P20963 52-163) | 56.8 | 80 | – | –
CD123·CAR (anti-CD123 chimeric antigen receptor: scFv from mAb 7G3 in frame with CH2CH3-CD28-OX40-ζ), expressed on CIK cells (from UniProt P10747 153-220; P43489 242-277; P20963 52-163) | – | – | 60 | 85
